Measured values as given in publication PMC3902925, “The double PHD finger domain of MOZ/MYST3 induces α-helical structure of the histone H3 tail to facilitate acetylation and methylation sampling and modification” (Nucleic Acids Research, 2013).

Target: histone H3 of calf thymus core histones (bovine (calf thymus), UniProt P68432 1-136)
Experiment: cell-based or functional assay

- initial rate of acetylation of core histones in time course HAT assays, DPF-MYST (194–810) against the MYST domain (510–810) alone: ≥ 8 fold
B1: GST-MOZ DPF-MYST (194–810) (enzyme)
chain: LPHEKDKPVAEPIPICSFCLGTKEQNREKKPEELISCADCGNSGHPSCLKFSPELTVRVKALRWQCIECKTCSSCRDQGKNADNMLFCDSCDRGFHMECCDPPLTRMPKGMWICQICRPRKKGRKLLQKKAAQIKRRYTNPIGRPKNRLKKQNTVSKGPFSKVRTGPGRGRKRKITLSSQSASSSSEEGYLERIDGLDFCRDSNVSLKFNKKTKGLIDGLTKFFTPSPDGRKARGEVVDYSEQYRIRKRGNRKSSTSDWPTDNQDGWDGKQENEERLFGSQEIMTEKDMELFRDIQEQALQKVGVTGPPDPQVRCPSVIEFGKYEIHTWYSSPYPQEYSRLPKLYLCEFCLKYMKSRTILQQHMKKCGWFHPPANEIYRKNNISVFEVDGNVSTIYCQNLCLLAKLFLDHKTLYYDVEPFLFYVLTQNDVKGCHLVGYFSKEKHCQQKYNVSCIMILPQYQRKGYGRFLIDFSYLLSKREGQAGSPEKPLSDLGRLSYMAYWKSVILECLYHQNDKQISIKKLSKLTGICPQDITSTLHHLRMLDFRSDQFVIIRREKLIQDHMAKLQLNLRPVDVDPECLRWTPVIVSNSVVSEEEEEEAEEGENEEPQCQERELE
